Source: PMC6199259, “Structural and functional insights into the interaction and targeting hub TMD0 of the polypeptide transporter TAPL” (Scientific Reports, 2018)

Tests used:
[1] = target: cf-TMD0-His S28C, MTSL labeled (human) (UniProt Q9NP78); assay: PELDOR (DEER) spectroscopy; MTSL labeled single cysteine cf-TMD0-His in c6-DHPC with 15–20% deuterated glycerol, frozen; Q-band (33.4 GHz), 50 K; modulation depth and distance distribution by Tikhonov regularization
[2] = target: cf-TMD0-His S138C, MTSL labeled (human) (UniProt Q9NP78); assay: as above
[3] = target: T1, coreTAPLmV (Homo sapiens, UniProt Q9NP78); conditions: 3 mM ATP, 3 uM RRYC(fluorescein)KSTEL, 3 mM MgCl2, pH 7.5, 37 °C, 15 min; with cf-TMD0-His co-reconstituted
T1 construct: gene ABCB9

[4] = target: T2, TmrAB (Thermus thermophilus, UniProt Q72J04+Q72J05); conditions: 3 mM ATP, 3 uM RRYC(fluorescein)KSTEL, 3 mM MgCl2, pH 7.5, 37 °C, 15 min; with cf-TMD0-His co-reconstituted
T2 construct: gene TT_C0976

[5] = target: cf-TMD0-His (M1 – P142), cell-free expressed (human) (UniProt Q9NP78); assay: SEC-MALS; 400 µg cf-TMD0-His on TSK-GEL G3000SWXL, 4 °C; 25 mM Na acetate, 300 mM NaCl, 0.7% c6-DHPC, pH 5.0; three-detector method (UV, refractive index, light scattering)

Work on “cf-TMD0-His S28C, MTSL labeled (from UniProt Q9NP78 1-142) (domain or fragment)” yielded a stoichiometry N [1] of 2.

With “cf-TMD0-His S138C, MTSL labeled (from UniProt Q9NP78 1-142) (domain or fragment)” the stoichiometry N [2] was 2.

With Nc1ncnc2c1ncn2[C@@H]1O[C@H](COP(=O)(O)OP(=O)(O)OP(=O)(O)O)[C@@H](O)[C@H]1O [ATP] the “ATP-dependent peptide transport in proteoliposomes, fluorescence” value [3] was “Functional reconstitution of coreTAPLmV as well as TmrAB into liposomes was demonstrated by ATP-dependent peptide transport” and the “ATP-dependent peptide transport in proteoliposomes, fluorescence” value [4] was “Functional reconstitution of coreTAPLmV as well as TmrAB into liposomes was demonstrated by ATP-dependent peptide transport”.

In the case of “cf-TMD0-His (M1 – P142), cell-free expressed (from UniProt Q9NP78 1-142) (domain or fragment)”, the stoichiometry N [5] is reported as 2.
